# Experimental data reported in PMC4396682.
# Legend:
# [1] = target: SpoVM (synthesized 26-amino-acid peptide), adsorbed on spherical supported lipid bilayers (Bacillus subtilis); experiment: fluorescence microscopy of retention on bead-supported lipid bilayers after competition; 0.006 uM SpoIVA^AF488 adsorbed on SpoVM-SSLBs without ATP in buffer A with 10 mM MgCl2; then 5 uM (800-fold excess) unlabelled SpoIVA; followed over time to 72 h
# [2] = target: SpoVM (synthesized 26-amino-acid peptide), adsorbed on spherical supported lipid bilayers (Bacillus subtilis); experiment: fluorescence microscopy of retention on bead-supported lipid bilayers after competition; 0.006 uM SpoIVA^AF488 adsorbed on SpoVM-SSLBs with 4 mM ATP in buffer A with 10 mM MgCl2; then 5 uM (800-fold excess) unlabelled SpoIVA; followed over time to 72 h
# SpoVM (synthesized 26-amino-acid peptide), adsorbed on spherical supported lipid bilayers (Bacillus subtilis), sequence (P37817 whole entry): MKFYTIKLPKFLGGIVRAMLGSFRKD
substance,measurement,setting,value
"SpoIVA^AF488 (His6-tagged cysteine-less SpoIVA variant C98S with a single engineered cysteine at the N terminus, labelled with AlexaFluor 488) (from UniProt P35149 1-492) (natural protein)","percent of the initial SpoIVA^AF488 still adsorbed after 4 h of competition with unlabelled SpoIVA, without ATP",[1],72%
same,"percent of the initial SpoIVA^AF488 still adsorbed after 72 h of competition with unlabelled SpoIVA, without ATP",[1],26%
same,"percent of the initial SpoIVA^AF488 still adsorbed after 72 h of competition with unlabelled SpoIVA, with ATP",[2],81%
